This passage reports protein production results from a protein production outcome set (Wang et al. 2014).
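Also: failed if final PepcDB status was selected cloned or expressed and not failed if soluble or beyond.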

A short description of the data set: label from the status in PepcDB records.
For the sequence “MSNIDFDKYRILLVNSYFQSRNAKITRFWNRATTNAKDIFHGIRTRKEFFSKIIRDFQTEFGEDFIEYLAGGELIGGITNILPIYENKMGVMERSGHIIHKKSGYHLTPDILSEYLINDVFFDNTFLKHNIEELAKADNGVHILDILNSLLKVKDDREIYREATEKLLEMLNCLESDNEQKKRRIRAGIVVYYGFGNLNLVTAAIGEFWTDYGILDDGIDLQALGIFLGDISKLYEARICMERANEIFKNNGDKIGIATSLHNLGIILHLQGNYEEAMNKYNQSLKIDEELGERHRISMSLRFLGRIEYDKGNYDDAVKLYNQSLMIAEKLGDQSGIAKLLGELGIVLLHQGNYDEAIKLYNQSLMIAEKLGDQSGIAGTLYELGKVYLIQDNYGESIEVQKRSLKIKELLGDKYGIAHSLHALGVTHEVKKEYTFALLNYLEASSIYKELNSPYSKDVSKLITDLRDKMGNEQFNKACKEFGYVPPDNI”, the protein production result is on record as “failed”.

As to “MSNKRIGVVIVSYGHEQDVANLVDTFADQLKTGDRVVVVDNRKPWVLKDAVGERLEKHGAEIINHDNGGFAAGCNVGAAHIVDDVDLLFFLNPDTVIDDPTLFNSLRRVDEQWAAFMPYLLLPDSTINSAGNALHISGLSWVTGLDEKPVEGSSEVTDISIASGACLAVRVDWWKRLGGMEELYFMYHEDTDFSARLLLAGGRIGLLHSAYVTHHYDYAKGDYKWIYIERNRHVLLLSVLPLPLLFVLIPQILGVNLGLWAIAAKEKRVGLKVKSLRLLIRDLPAIFKLRRSTQELAELTPSQYLAKMEWRLDNPNLGNIGSNKIVATGYKTYYKLCMSILKLLA”, the protein production entry was “failed”.

Turning to “MSNQQNVWVAYATQTQQFHIRVAFQQGMTAWQAIESSGLLTQVELPQPYHLGIFGVRCVADRLLEAGDRVEIYRPLTINPKDIRRKRAEKNPVGRFQKGNRFK”, the protein production result is “failed”.

As to “MSNSHLGTLCFIISLLGLANFSLSQTGLDDSTMQSLKSSLNLTSDVDWSNPNPCKWQSVQCDGSNRVTKIQLKQKGIRGTLPTNLQSLSELVILELFLNRISGPIPDLSGLSRLQTLNLHDNLFTSVPKNLFSGMSSLQEMYLENNPFDPWVIPDTVKEATSLQNLTLSNCSIIGKIPDFFGSQSLPSLTNLKLSQNGLEGELPMSFAGTSIQSLFLNGQKLNGSISVLGNMTSLVEVSLQGNQFSGPIPDLSGLVSLRVFNVRENQLTGVVPQSLVSLSSLTTVNLTNNYLQGPTPLFGKSVGVDIVNNMNSFCTNVAGEACDPRVDTLVSVAESFGYPVKLAESWKGNNPCVNWVGITCSGGNITVVNMRKQDLSGTISPSLAKLTSLETINLADNKLSGHIPDELTTLSKLRLLDVSNNDFYGIPPKFRDTVTLVTEGNANMGKNGPNKTSDAPGASPGSKPSGGSDGSETSKKSSNVKIIVPVVGGVVGALCLVGLGVCLYAKKRKRPARVQSPSSNMVIHPHHSGDNDDIKLTVAASSLNSGGGSDSYSHSGSAASDIHVVEAGNLVISIQVLRNVTNNFSEENILGRGGFGTVYKGELHDGTKIAVKRMESSVVSDKGLTEFKSEITVLTKMRHRHLVALLGYCLDGNERLLVYEYMPQGTLSQHLFHWKEEGRKPLDWTRRLAIALDVARGVEYLHTLAHQSFIHRDLKPSNILLGDDMRAKVSDFGLVRLAPDGKYSIETRVAGTFGYLAPEYAVTGRVTTKVDIFSLGVILMELITGRKALDETQPEDSVHLVTWFRRVAASKDENAFKNAIDPNISLDDDTVASIEKVWELAGHCCAREPYQRPDMAHIVNVLSSLTVQWKPTETDPDDVYGIDYDMPLPQVLKKWQAFEGLSQTADDSGSSSSAYGSKDNTQTSIPTRPSGFADSFTSVDGR”, the protein production result is given as “failed”.

In the case of “MSNSKWWFLLVCFIPAITFASEGGEHSDPVTSVLLGVTTILFLAIIGRYLARLLNQPGVLGELLIGMIVGNLSYFFGSELVVILREGSAIYDVVKEMLAGISLNQAVTHVIHNSYYANQVIHALSGAEGTEYLKIAYVVDIFSRYGVIFLLFMVGLETSLSDLKKTGKESILVAVIGIVAPMILGFVVACFIIPNSNYKINLFIGATLSATSIGITASVLKEMNKLSTREARTILGAATLDDILGLIILAVVSSIVISGAVSIMVVMKIIILALLFFIGTLFMGPFVLRKAVDLFRFLEPWESKLFISFLFIMALAWLASFIQLAAIIGAFAAGVILHDDYFGEQKAHHKDHRSIHHLVSPLETILAPMFFTLIGIQVKLETFYDWNVIVLAGGLSVAAILGKLLSGLGANRRDDRLLIGIGMLPRGEVGLVFASIGRTIGVISDNLFTAIVLMIMITTFIAPPLLKMRYAKPKEDRNA”, the protein production entry is “failed”.

For “MSNTIIRSLCVVLFGIAAVPGIADAQSSAYTNSGAELFAGPAPDYPVVAQLPPGTAVDVFGCLSDYSWCDVALPGVRGWIDAQQLDYPYQGNYVPLLEYGAIIGVPVTGFAIGTYWDRYYRHRPWFHDRDRWEHRAEPRVGPGGMPPAYYGRPQPGWPAQREPRGAPPVQHDARPSATRGGWNGPNRAPAPQVAPAPARAPAPMPAPAPMPAPAPIPGAAGVRQPAPPPAQPAQPAPSGGAVQMMPPAHQGGGGYGGRPQGGGDGGGNHGGGGGRGRSDEFRR”, the protein production result is “failed”.

Consider “MSNYAAGLGKPGSGKRRIRDLLNQPDNRVCADCGASVPKWAKYQSIHLLKSCGVHRSLGTHILKVLSVTLDEWSDEEVDSMIETGGNASANSIYEAFVPDTCSKPGPDVNHDQRMRFIR”, for which the protein production entry is given as “failed”.

On to “MSPAPPRGPGMSQARSLSLILAAVLASLLPVTGSQAGEPGRALWVMSYNIRYDNPDDRPDWRTRRGPMVEQIRFFAPDILGLQEALPAMVDQLAGDLAGYAHYGVGRDDGARLGETTTIFYRAERFQRVLARTYWCSPTPDTPSKAYDAALPRTFTRLVLKDRITGVTFDVRNAHLDHVGAESRAKCAAQILALAPWPKARLITLGDFNSAPEEAPYRLLTAPEGPYRDARAAASSVFSPSTGTFNRFTPASIGPPIDYIFVDRRLNVARFAVPTDVADAGVISDHFPVLAEITLSPKTRAKAKP”, for which the protein production result was “failed”.

“MSPGPQSGGQERGSMERKMVELEDTGLTFATEVDLERLQALAAEWLQVIGEDPGREGLLKTPERVAKAWAFLTRGYRQRLEEVVGGAVFPAEGSEMVVVKGVEFYSMCEHHLLPFFGKVHIGYIPDGKILGLSKFARIVDMFARRLQVQERLAVQIAEAIQEVLEPQGVGVVVEGVHLCMMMRGVEKQHSRTVTSAMLGVFRENQKTREEFLSHLRDGTA”: the protein production result is “not failed”.

With “MSPIALARLLTLAAVWGASFLFMRIIAPELGTVPTAFFRVSIACLGLIVILAAARVRWNFQGKLGACLVLGMINSGIPATFYSVAAQVLPAGYSAIFNATTPLMGVLVGVLFFREPMTLAKLCGIFLGLFGVGILSGAGPVALDMALLQGALACLAATTCYGFAGFLARRWISGLDSRLSALGSMLGATLMLTPLFGWSALTQPPASWGGWEVWLSLLGLGLLCTAFAYILYFRLLEEIGPVKASTVTFLIPVFGVLWGAWLLNEPLSMAHLYGGLLIGLALWLVLRPARS”, the protein production entry was “failed”.

On to “MSPIEHAVISAAGIGSRLGLNKPKCLVEVGGKTLLAQHLERLAEIPNVWVVVGFQEELVIEQVRNLRRDAIIVRNPDFDRTNTLQSIHRVSRYLDRRFLAVDGDTFIENRSFERFLRAAAGQAGLIGVSRYTTSDGVRVLLDAGGEAVTAFTREPQHAYEWTGIAILRPDMVVDRPIYVYQALEPYLPLPAQELDAFDIDTASDLDMARRVHLNNWNLND”, for which the protein production result was “failed”.

Turning to “MSPIILSITIIAYFMILFAISYIAGHKADNEGFFVGNRKSAWYIVAFAMIGSTISGVTFVSVPGMVQASGFSYLQMVLGFIVGQFIIAFILVPLFYRMNLVSIYEYLENRFGASSYKTGAWFFFISKMLGAAVRLFLVCLTLQLLIFEPFHIPFIINVILTVLIVWLYTFRGGVKSLIWTDVLKTFCLVVSVVLCIYYIASSLHLNFSGLVSTISDNDLSKMFFFDDVNDKRYFFKQFLAGVFTVIAMNGLDQDMMQRNLSCKNFRDSQKNMITSGISQFFVILLFLMLGVLLYTFTARQGIENPGKSDELFPMIATGNYFPGIVGILFIIGLIASAYSAAGSALTALTTSFTVDILNAHKKDEAALSKIRKHVHIGMAFVMGIVIFVFNLLNNTSVIDAIYTLASYTYGPILGLFAFGIFTKKQVYDPYIPLVAILSPALCYVLQRNSEAWFDGYQISYELLILNAAFTFLGLCLLIKRKSSVAPINNSLIKKH”, the protein production entry was “failed”.

Consider “MSPKKDKFLDNAQKFLVKGQLDRALREYEQAVAIDPKDVRVRQKYAELLVRANRKDDALKEFEVIGKYYSDNGFYLKAIAVYKQIQKLTPSNLDISLTLGALNEKQGLIGNALAEYKFVFDHYERSNRFIDAVAVLEKMLAADRDNLNIRLKLAETRHRANLIDDAYHDYTELARELRSKGDNAAYTRVCERIASMFPDRKDFLLTVAENQIRDGKAAAAIPVLKQIVGDDRWNPKALYLLADAARAVADPAMVKGAYGQIIKRFPGEITAIKGFLFSLKAEGNVDEAVRVLRHVEPELIKAEPETLEQFYLSFRDLSPDHPGIAEGLLRIRGTAGVDEPEPMVEQVPDVAEPEKEADFAPQPEESDSVMEEPPAEDIPWEEEIDISFDSDGASVEGNRPTEGEASESPSFLHDEGMSLVEADESPIRFDDSSEEETREVEVELADFSSITPDWLDGVPDSAMDKPGETTFSEGLSLDFTDGELEDVIPPPPLDSPMPKPDKYGLDGLFSAFKKGVGEQLTQDDTESHYSLGIAYKEMGLFDDAIVEFQSAARDPRRLADCITLQGICSREKGDPAKAEEYFRSGLAVEGLNREERLCLTYELALLYEMIGDRTRALAGYREALALNPGFRDVAQKIAILRSDGDTHDAADLELLDLDEVEEGAG”, for which the protein production entry is on record as “failed”.

Turning to “MSPMSRAGTTVMRRIILMLIYCCLGTGLAGCDYTLREAAIVAPVDPPGGDPVQEPTDVKYYPSDEPVRLGLEHFNRGSYGLSQRYFKDAVEKSPKDLTAWIGLAASYDRLRRFDLADQAYAQAIRLGGETVQILNDQGYSYMLRGNLSAARRKFEKAYSLDPGNPVIANNLELLNGSRRFIERPPNNQP”, the protein production entry was “failed”.

On to “MSPPLDHAWIAARIPHSGAMCLLDQVVTWDDTHIRCTTTSHRAPDNPLRAHGRLAAVCGIEYAAQAMAVHGAILGNAQDRPRAGFLASVRSVEAHVERLDTIEAPLTIEAERIGGDGNNVLYRFSVRCGERVLLTGRAAVVLDAAGLGLPDAGALAKANAQARLEHHHHHH”, for which the protein production entry is reported as “failed”.

As to “MSPTSMYIAWGWKDIIPQLPALIHAFQTSEMNTPKMRRLCKFTALPEAMNNIGDRSDVYSFRIFLGTIITVKVSYETLDRLTARHTSLRCYRVACLRIKYAYYTNNNASPGHSFNIKLNIDTGVKGSI”, the protein production result is “failed”.

With “MSQAIPSSRVGVKINEWYKMIRQFSVPDAEILKAEVEQDIQQMEEDQDLLIYYSLMCFRHQLMLDYLEPGKTYGNRPTVTELLETIETPQKKLTGLLKYYSLFFRGMYEFDQKEYVEAIGYYREAEKELPFVSDDIEKAEFHFKVAEAYYHMKQTHVSMYHILQALDIYQNHPLYSIRTIQSLFVIAGNYDDFKHYDKALPHLEAALELAMDIQNDRFIAISLLNIANSYDRSGDDQMAVEHFQKAAKVSREKVPDLLPKVLFGLSWTLCKAGQTQKAFQFIEEGLDHITARSHKFYKELFLFLQAVYKETVDERKIHDLLSYFEKKNLHAYIEACARSAAAVFESSCHFEQAAAFYRKVLKAQEDILKGRVFICLLRKKVMMCLAVTLVFGSMSFPTLTNSGGFKESTDRNTTYIDHSPYKLSDQKKALS”, the protein production entry was “failed”.

On to “MSQDLIRAAFEKRLSDWAKARTPALPVAWQNTKFTPPAAGVYLRAYVMPAATISRDAAGDHRQYRGVFQVNVVMPIGDGSRSAEQVAAELDALFPVNLVMQSGGLAVRVRTPISNGQPTTGDADHTVPISLGYDVQFYPE”, for which the protein production result is on record as “not failed”.
